Source: US20090269346A1

Assays:
[1] = biological target: LRP2 CR89 (human) (UniProt P98164); assay: phage binding: equal amounts of phage incubated in wells coated with LRP2 CR89, bound phage eluted and titered; no EDTA
[2] = biological target: LRP2 CR89 (human) (UniProt P98164); assay: phage binding: equal amounts of phage incubated in wells coated with LRP2 CR89, bound phage eluted and titered; in the presence of 50 mM EDTA

Chain of LRP2 CR89 (human) (P98164 1025-1102): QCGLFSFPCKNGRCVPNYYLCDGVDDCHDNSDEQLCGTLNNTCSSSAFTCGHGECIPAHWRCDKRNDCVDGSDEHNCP

B1: RAP phage (protein, not shown: large carriers)
chain: YSREKNQPKPSPKRESGEEFRMEKLNQLWEKAQRLHLPPVRLAELHADLKIQERDELAWKKLKLDGLDEDGEKEARLIRNLNVILAKYGLDGKKDARQVTSNSLSGTQEDGLDDPRLEKLWHKAKTSGKFSGEELDKLWREFLHHKEKVHEYNVLLETLSRTEEIHENVISPSDLSDIKGSVLHSRHTELKEKLRSINQGLDRLRRVSHQGYSTEAEFEEPRVIDLWDLAQSANLTDKELEAFREELKHFEAKIEKHNHYQKQLEIAHEKLRHAESVGDGERVSRSREKHALLEGRTKELGYTVKKHLQDLSGRISRARAEAETG
modifications: Displayed on M13 phage as an N-terminal fusion to pIII; pIII letters not given.
cfu recovered [1]: 520 cfu | cfu recovered [2]: 146 cfu
